In test [1] the target is pentameric gH complex on infectious CMV (neutralization assays) (human cytomegalovirus). The experiment in a line: cell-based or functional assay.
Test [2] concerns the target recombinant pentameric gH complex (Towne strain) (human cytomegalovirus, Towne strain) (UniProt P17176). The experiment in a line: BLI competition on His-pentamer; competitor (antibody 2): 2-18.
Test [3] has the same target. The experiment in a line: BLI competition on His-pentamer; competitor (antibody 2): 270.7.
Test [4] shares this target. The experiment in a line: BLI competition on His-pentamer; competitor (antibody 2): 3-15.
The target is the same in test [5]. The experiment in a line: BLI competition on His-pentamer; competitor (antibody 2): 70.7.
Test [6] shares this target. The experiment in a line: BLI competition on His-pentamer; competitor (antibody 2): 276.1.
The target is the same in test [7]. The experiment in a line: BLI competition on His-pentamer; competitor (antibody 2): 3-16.
Test [8] has the same target. The experiment in a line: BLI competition on His-pentamer; competitor (antibody 2): 324.4.
Test [9] shares this target. The experiment in a line: BLI competition on His-pentamer; competitor (antibody 2): 316.2.
Test [10] has the same target. The experiment in a line: BLI competition on His-pentamer; competitor (antibody 2): 1-103.
The target is the same in test [11]. The experiment in a line: BLI competition on His-pentamer; competitor (antibody 2): 1-32.
Test [12] has the same target. The experiment in a line: BLI competition on His-pentamer; competitor (antibody 2): 3-7.
Test [13] shares this target. The experiment in a line: BLI competition on His-pentamer; competitor (antibody 2): 2-25.
The target is the same in test [14]. The experiment in a line: BLI competition on His-pentamer; competitor (antibody 2): 57.4.
Test [15] has the same target. The experiment in a line: BLI competition on His-pentamer; competitor (antibody 2): 124.4.
Test [16] has the same target. The experiment in a line: BLI competition on His-pentamer; competitor (antibody 2): 1-85.
Test [17] has the same target. The experiment in a line: BLI competition on His-pentamer; competitor (antibody 2): 1-150.
Another test concerns the target CMV virions. The experiment in a line: virion ELISA.

recombinant pentameric gH complex (Towne strain) (human cytomegalovirus, Towne strain), sequence (P17176 30-715, one chain of several): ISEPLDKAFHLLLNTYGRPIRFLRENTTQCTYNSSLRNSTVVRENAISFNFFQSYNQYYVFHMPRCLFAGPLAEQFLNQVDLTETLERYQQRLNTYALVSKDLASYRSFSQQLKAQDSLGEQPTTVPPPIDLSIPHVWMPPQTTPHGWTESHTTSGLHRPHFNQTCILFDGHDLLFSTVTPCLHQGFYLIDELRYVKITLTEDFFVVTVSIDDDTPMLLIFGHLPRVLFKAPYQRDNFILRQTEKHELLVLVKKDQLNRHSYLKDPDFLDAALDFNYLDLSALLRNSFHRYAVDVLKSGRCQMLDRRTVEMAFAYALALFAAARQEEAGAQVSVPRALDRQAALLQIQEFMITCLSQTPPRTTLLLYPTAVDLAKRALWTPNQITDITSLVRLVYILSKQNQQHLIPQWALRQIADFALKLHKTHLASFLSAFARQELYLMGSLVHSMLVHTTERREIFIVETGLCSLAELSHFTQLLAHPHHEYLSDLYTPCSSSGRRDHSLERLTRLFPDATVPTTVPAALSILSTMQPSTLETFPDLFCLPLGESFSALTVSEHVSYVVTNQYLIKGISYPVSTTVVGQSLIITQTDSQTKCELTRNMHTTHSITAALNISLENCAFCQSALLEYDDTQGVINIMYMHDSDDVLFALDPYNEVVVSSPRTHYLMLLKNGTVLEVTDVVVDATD

B1: 2-25 (antibody, V domains shown)
VH: QVQLVESGAEVKKPGALVKVSCKASGYTFTNYAIHWVRQASGQRLEWMGWINAGRGNTKYSQKFQGRVTITRDTSASTAYMELSSLRSEDAAVYFCARDESTGDYYYYMDVWGKGTTVTVSS
VL: SYELTQPPSVSVSPGQTASITCSGDRLDDKYASWYQQKAGQSPVLVIYQDNKRPSGIPERFSGSNSGNTATLTISGTQAMDEADYYCQAWDSDTYVFGTGTKVTVL
Molecule B1 displayed an EC50 Neutralizing in [1] of 0.09 ng/mL. The molecule further had an IC50 in ARPE-19 in test [1] of 0.08 ng/mL. The Pair-wise inhibition (%) in test [2] was 87%; in [3] it was -10%; in test [4], 10%; in [5] it was 29%; in test [6], -25%; in [7], 6%. The Pair-wise inhibition (%) in [8] was -4%; in [9] it was -1%; in [10] it was -4%; in test [11], 2%; in [12], 9%; in [13], 104%. Besides, the Pair-wise inhibition (%) was 15% in test [14], 1% in test [15], 7% in test [16] and -17% in [17].

B2: 1-125 (antibody, V domains shown)
VH: QVQLVESGGGLVKPGGSLRLSCAPAGFNFKDYYMTWIRQAPGKGLEWVSFISSSGQTIYYADSVKGRFTISRDNARNSLYLQMNSLRAEDTAVYYCARDSYSKLVDIVAIEAFDLWGQGTLVSVSS
VL: SYELTQPPSVSVAPGKMARITCGGDNIGSKSVHWYQQRPGQAPVLVIRFDTDRPSRIPERFSGSNSGNTATLAISRVEAGDEADYYCQVWDSSSARLVFGGGTKLTVL
In the case of B2, the EC50 Neutralizing in test [1] stood at 0.9 ng/mL. In the test with CMV virions, the EC50 is 1400 ng/mL.

B3: 1-32 (antibody, V domains shown)
VH: QVKLVESGGGVVQPGRSLRLSCAGSGFAFDNYAMHWVRQAPGKGLEWVAVISLEGRNKYYAGPAKGRFSISRDNSRNTVHLQMNSLRPEDTAVYFCARDMRYYYDSNGHYRNRYGMDVWGQGTTVIVSS
VL: DIQMTQSPSSLSASVGDSVTITCQASQDINQFVSWYQQKPGKPPKLLIYDASNLESGVPSRFSGSGSGTHFTFTISSLQPDDIATYYCQQYENLFTFGPGTKVDIK
In test [1], B3 returned an EC50 Neutralizing of 20 ng/mL. In addition, the IC50 in ARPE-19 in test [1] came out at 0.82 ng/mL. Besides, the Pair-wise inhibition (%) in test [2] is -1%; in test [3], 97%; in test [4], 7%; in [5], 87%; in test [6], -11%; in test [7], 10%. Moreover, the Pair-wise inhibition (%) in test [8] is 6%; in test [9], 78%; in [10] it was 15%; in test [11], 91%; in [12], 8%; in [13], -33%. Further, the Pair-wise inhibition (%) worked out at 57% in test [14], 7% in [15], 18% in [16] and 4% in test [17].

B4: 1-15 (antibody, V domains shown)
VH: QVQLVASGGGLVKPGGSLRLSCAASEFTFSDYYMTWIRQAPGKGLEWVSYISSSGTTIYYADSVKGRFTVSRDNAKNSLFLQMNSLRAEDTALYYCARDSYSKLVDIEAIEAFDIWGQGTMVTVSS
VL: SYELTQPPSVSVGPGRTARITCGANNIGSKSVHWYQQRPGQAPVLVISFDTDRPSGIPERFSGSNSGNTATLTISRVEAGDEADYFCQVWDRTSDHVVFGGGTKLTVL
In test [1], B4 came in with an EC50 Neutralizing of 0.9 ng/mL.

B5: 1-64 (antibody, V domains shown)
VH: QVQLVASGGGLVKPGGSLRLSCAASGFTFSDYYMTWIRQAPGKGLEWVSYISSSGTTIYYADSVKGRFTVSRDNAKNSLFLQMNSLRAEDTALYYCARDSYSKLVDIEAIEAFDIWGQGTMVTVSS
VL: SYELTQPPSVSVGPGRTARITCGANNIGSKSVHWYQQRPGQAPVLVISFDTDRPSGIPERFSGSNSGNTATLTISRVEAGDEADYFCQVWDRTSDHVVFGGGTKLTVL
Molecule B5 gave an EC50 Neutralizing in test [1] of 1 ng/mL.

B6: 1-150 (antibody, V domains shown)
VH: QVQLVESGGGLVKPGGSLRLSCAASGFSFSAYYMSWIRQAPGKGLEWISYISSSGNTIYYTDSVKGRFTIARDNAKNSLYLQMNSLRAEDTGLYYCARDSYSKLADIEATEAFDVWGQGTMVAVSS
VL: SYELTQPPSVSVAPGKTARITCGGNNIGSKSVHWYQQKPGQAPVMVIYYDSDRPSGIPERFSGSNSGNTATLTISRVEAGDEADYYCQVWDSGSDRVVFGGGTKLTVL
Molecule B6 gave an EC50 Neutralizing in test [1] of 1 ng/mL. Besides, in test [1], the IC50 in ARPE-19 amounted to 0.31 ng/mL. This molecule had an IC50 in MRC-5 in test [1] of 260 ng/mL. Moreover, the Pair-wise inhibition (%) is -10% in [2]; -29% in test [3]; 6% in test [4]; -32% in test [5]; -12% in test [6]; 2% in test [7]. The Pair-wise inhibition (%) is -12% in [8]; -22% in test [9]; 26% in test [10]; -11% in test [11]; 0% in [12]; -22% in test [13]. Also, the Pair-wise inhibition (%) in [14] is -19%; in [15] it was -22%; in [16], 61%; in test [17], 104%.

B7: 1-85 (antibody, V domains shown)
VH: QVHLVESGGGLVKPGRSLRLSCAASGFTFSDYYMAWIRQVPGKGLEWVSFISSSGRTIYYADSVKGRFTISRDNAKDSLYLQMHSLRAEDTAVYYCARDSYSKLVDIEAIEAFDIWGRGTMVTVSS
VL: SYELAQPPSVSVAPGKTATIACGGDNIGGKSVHWYLQKAGQAPVLVISYDSDRPSGIPERFSGSNSGNTATLTISRVEAGDEADYFCQVWDRHGDHVVFGGGTKLTVL
As for B7, in test [1], the EC50 Neutralizing was 0.9 ng/mL. The molecule also registered an IC50 in ARPE-19 in test [1] of 0.13 ng/mL. Also, the Pair-wise inhibition (%) in test [2] is 14%; in test [3] it was 27%; in test [4] it was 33%; in test [5], 36%; in test [6], -2%; in [7] it was 37%. The Pair-wise inhibition (%) is 17% in test [8]; 29% in test [9]; 27% in test [10]; 16% in test [11]; 27% in test [12]; -4% in [13]. Besides, the Pair-wise inhibition (%) was determined as 29% in test [14], 24% in test [15], 87% in test [16] and 117% in test [17].

B8: 1-175 (antibody, V domains shown)
VH: QVHLVESGGGLVKPGGSLRLSCAASGFTFSDYYMAWIRRAPGKGLEWISFISGSGRTLYHAESVKGRFTVSRDNAKDSLYLHMHSLRDADTAVYYCARDSYSKLVEIEAIEAFDVWGRGTVVTVSS
VL: SYELAQPPSVSVAPGKPARIACGGDNIGGKSVHWYLQKAGQAPVLVMSYDSDRPSGIPERFSGSNSGNTATLTISRVEAGDEGDYFCQVWDRQTDHVVFGGGTKLTVL
The molecule B8 returned an EC50 Neutralizing in [1] of 1 ng/mL.

Broadly, the EC50 is the concentration giving half of the maximal effect. The low end stands for higher potency in that assay, the high end for lower potency in that assay.
